Patent US12065471B2, “B*44 restricted peptides for use in immunotherapy against cancers and related methods” (Immatics Biotechnologies GmbH, priority 2018, dated 2024)

What follows are substances tested against HLA-B*44:05 (Homo sapiens, UniProt P01889, A223V/A65T/A93T/A95T/D201E/D98Y/E176V/E187L/E204Q/E69K/G107R/H137Y/K202T/L105A/L119I/N104T/N87E/Q56L/Q94N/R106L/R155S/R180D/S101N/S121R/S35A/S48T/T118I/V36M/W191S/Y91S) (assay: MHC binding assay (UV-ligand exchange, β2m ELISA, peptide exchange yield)). Conditions: binding to HLA-B*44:05.
Excerpt: Candidate peptides for T cell-based therapies according to the present invention were further tested for their MHC binding capacity (affinity). The individual peptide-MHC complexes were produced by UV-ligand exchange, where a UV-sensitive peptide is cleaved upon UV-irradiation and exchanged with the peptide of interest as analyzed. Only peptide candidates that can effectively bind and stabilize the peptide-receptive MHC molecules prevent dissociation of the MHC complexes. To determine the yield of the exchange reaction, an ELISA was performed based on the detection of the light chain (β2m) of stabilized MHC complexes. The assay was performed as generally described in Rodenko et al. (Rodenko et al., 2006)
96 well MAXISorp plates (NUNC) were coated over night with 2 μg/ml streptavidin in PBS at room temperature, washed 4× and blocked for 1 h at 37° C. in 2% BSA containing blocking buffer. Refolded HLA-A*02:01/MLA-001 monomers served as standards, covering the range of 15-500 ng/ml. Peptide-MHC monomers of the UV-exchange reaction were diluted 100-fold in blocking buffer. Samples were incubated for 1h at 37° C., washed four times, incubated with 2 μg/ml HRP conjugated anti-β2m for 1h at 37° C., washed again and detected with TMB solution that is stopped with […]. Absorption was measured at 450 nm.
“403 (QESVHVASY; listed as Homo sapiens) [compound 403]” was tested, and the “Peptide exchange (MHC class I binding score, peptide exchange yield)” value (shortened to “Peptide exchange”) was “++++ (>75% = ++++)”. “145 (EELRMLSF; listed as Homo sapiens) [compound 145]” was tested, and the “Peptide exchange” value was “++ (>20% = ++)”. With “349 (LEWQHPSSW; listed as Homo sapiens) [compound 349]” the “Peptide exchange” value was “++++ (>75% = ++++)”. For “111 (QEIDQKRLEF; listed as Homo sapiens) [compound 111]”, the “Peptide exchange” value was “++ (>20% = ++)”. In the case of “306 (RRHPSFKRF; listed as Homo sapiens) [compound 306]”, the “Peptide exchange” value is reported as “+ (>10% = +)”. In the case of “246 (HEHGLFNLY; listed as Homo sapiens) [compound 246]”, the “Peptide exchange” value is reported as “+++ (>50 = +++)”. For “343 (SEFDLEQVW; listed as Homo sapiens) [compound 343]”, the “Peptide exchange” value was “++++ (>75% = ++++)”. With “263 (AEQLRGFNA; listed as Homo sapiens) [compound 263]” the “Peptide exchange” value was “+++ (>50 = +++)”. In the case of “277 (VEFPATRSL; listed as Homo sapiens) [compound 277]”, the “Peptide exchange” value is reported as “+++ (>50 = +++)”. For “198 (REEEANVVL; listed as Homo sapiens) [compound 198]”, the “Peptide exchange” value was “+++ (>50 = +++)”. In the case of “152 (HENLIEDF; listed as Homo sapiens) [compound 152]”, the “Peptide exchange” value is reported as “+++ (>50 = +++)”. “91 (EESLLSSWDF; listed as Homo sapiens) [compound 91]” was tested, and the “Peptide exchange” value was “+++ (>50 = +++)”. In the case of “322 (REESDWHYL; listed as Homo sapiens) [compound 322]”, the “Peptide exchange” value is reported as “+++ (>50 = +++)”. With “174 (DENDAGNLITF; listed as Homo sapiens) [compound 174]” the “Peptide exchange” value was “+++ (>50 = +++)”. In the case of “311 (REKDLPNYNW; listed as Homo sapiens) [compound 311]”, the “Peptide exchange” value is reported as “++++ (>75% = ++++)”. For “438 (AELDSKILAL; listed as Homo sapiens) [compound 438]”, the “Peptide exchange” value was “+++ (>50 = +++)”. In the case of “140 (TEHSGIYSC; listed as Homo sapiens) [compound 140]”, the “Peptide exchange” value is reported as “++ (>20% = ++)”. With “377 (AEDARGWTA; listed as Homo sapiens) [compound 377]” the “Peptide exchange” value was “++ (>20% = ++)”. For “208 (SEFLLRIF; listed as Homo sapiens) [compound 208]”, the “Peptide exchange” value was “++ (>20% = ++)”. “448 (ALSPVPSHW; listed as Homo sapiens) [compound 448]” was tested, and the “Peptide exchange” value was “+++ (>50 = +++)”. In the case of “218 (REAEEKEAQL; listed as Homo sapiens) [compound 218]”, the “Peptide exchange” value is reported as “+++ (>50 = +++)”. In the case of “339 (NEVKEIKGY; listed as Homo sapiens) [compound 339]”, the “Peptide exchange” value is reported as “+++ (>50 = +++)”. “340 (GELAPSHGL; listed as Homo sapiens) [compound 340]” was tested, and the “Peptide exchange” value was “+++ (>50 = +++)”. With “129 (EEAMKRLSY; listed as Homo sapiens) [compound 129]” the “Peptide exchange” value was “++ (>20% = ++)”. “268 (EDLAVHLY; listed as Homo sapiens) [compound 268]” was tested, and the “Peptide exchange” value was “+ (>10% = +)”. For “55 (TEFHMQFSY; listed as Homo sapiens) [compound 55]”, the “Peptide exchange” value was “++++ (>75% = ++++)”. “418 (GEPRKLLTQDW; listed as Homo sapiens) [compound 418]” was tested, and the “Peptide exchange” value was “+++ (>50 = +++)”. In the case of “307 (YEQLLKVVTW; listed as Homo sapiens) [compound 307]”, the “Peptide exchange” value is reported as “++++ (>75% = ++++)”. “130 (REYQEVMNSKL; listed as Homo sapiens) [compound 130]” was tested, and the “Peptide exchange” value was “+++ (>50 = +++)”. “444 (SESALQTVI; listed as Homo sapiens) [compound 444]” was tested, and the “Peptide exchange” value was “+++ (>50 = +++)”. “220 (EEEVFSGMKL; listed as Homo sapiens) [compound 220]” was tested, and the “Peptide exchange” value was “++++ (>75% = ++++)”. In the case of “315 (MEQQSQEY; listed as Homo sapiens) [compound 315]”, the “Peptide exchange” value is reported as “+++ (>50 = +++)”. For “142 (QELFLHPVL; listed as Homo sapiens) [compound 142]”, the “Peptide exchange” value was “++++ (>75% = ++++)”. With “449 (RENDFEPKF; listed as Homo sapiens) [compound 449]” the “Peptide exchange” value was “+++ (>50 = +++)”. With “269 (SEDLAVHL; listed as Homo sapiens) [compound 269]” the “Peptide exchange” value was “++++ (>75% = ++++)”. “202 (RELPLVLLA; listed as Homo sapiens) [compound 202]” was tested, and the “Peptide exchange” value was “++ (>20% = ++)”. For “89 (KEFYPVKEF; listed as Homo sapiens) [compound 89]”, the “Peptide exchange” value was “++ (>20% = ++)”. With “192 (LEIMTNLVTL; listed as Homo sapiens) [compound 192]” the “Peptide exchange” value was “++++ (>75% = ++++)”. In the case of “193 (RELRPLFDRQW; listed as Homo sapiens) [compound 193]”, the “Peptide exchange” value is reported as “+++ (>50 = +++)”. In the case of “209 (AEGEPPPAL; listed as Homo sapiens) [compound 209]”, the “Peptide exchange” value is reported as “+++ (>50 = +++)”. In the case of “285 (AEHPDFSPCSF; listed as Homo sapiens) [compound 285]”, the “Peptide exchange” value is reported as “+++ (>50 = +++)”. For “65 (SESMVESKF; listed as Homo sapiens) [compound 65]”, the “Peptide exchange” value was “++ (>20% = ++)”. With “280 (AAEPLVGQRW; listed as Homo sapiens) [compound 280]” the “Peptide exchange” value was “++ (>20% = ++)”. “337 (VEVIPEGAML; listed as Homo sapiens) [compound 337]” was tested, and the “Peptide exchange” value was “+++ (>50 = +++)”. With “206 (SEDPEKYYL; listed as Homo sapiens) [compound 206]” the “Peptide exchange” value was “+++ (>50 = +++)”. “151 (TELQIPSF; listed as Homo sapiens) [compound 151]” was tested, and the “Peptide exchange” value was “++ (>20% = ++)”. With “250 (AELDHLASL; listed as Homo sapiens) [compound 250]” the “Peptide exchange” value was “+++ (>50 = +++)”. In the case of “167 (AETENRYCV; listed as Homo sapiens) [compound 167]”, the “Peptide exchange” value is reported as “+++ (>50 = +++)”. In the case of “248 (KESQLPTVMDF; listed as Homo sapiens) [compound 248]”, the “Peptide exchange” value is reported as “+++ (>50 = +++)”. With “436 (AEADLSYTWDF; listed as Homo sapiens) [compound 436]” the “Peptide exchange” value was “+++ (>50 = +++)”. In the case of “107 (YQENPRAAW; listed as Homo sapiens) [compound 107]”, the “Peptide exchange” value is reported as “++ (>20% = ++)”. In the case of “297 (DEYLIPQQGFF; listed as Homo sapiens) [compound 297]”, the “Peptide exchange” value is reported as “++ (>20% = ++)”. With “303 (GEDAHLTQY; listed as Homo sapiens) [compound 303]” the “Peptide exchange” value was “++ (>20% = ++)”. For “327 (SEQHSLPVF; listed as Homo sapiens) [compound 327]”, the “Peptide exchange” value was “+++ (>50 = +++)”. With “27 (GETCVRITY; listed as Homo sapiens) [compound 27]” the “Peptide exchange” value was “+++ (>50 = +++)”. For “244 (VESSQAFTW; listed as Homo sapiens) [compound 244]”, the “Peptide exchange” value was “+++ (>50 = +++)”. “146 (MEELRMLSF; listed as Homo sapiens) [compound 146]” was tested, and the “Peptide exchange” value was “+++ (>50 = +++)”. With “316 (RLWPEPENW; listed as Homo sapiens) [compound 316]” the “Peptide exchange” value was “++ (>20% = ++)”. In the case of “267 (VELEVPQL; listed as Homo sapiens) [compound 267]”, the “Peptide exchange” value is reported as “++ (>20% = ++)”. “180 (EEHSSKLQTSL; listed as Homo sapiens) [compound 180]” was tested, and the “Peptide exchange” value was “++++ (>75% = ++++)”. With “442 (KESDAGKYY; listed as Homo sapiens) [compound 442]” the “Peptide exchange” value was “+++ (>50 = +++)”. For “391 (TESIGAQIY; listed as Homo sapiens) [compound 391]”, the “Peptide exchange” value was “+++ (>50 = +++)”. “95 (AAFEDAQGHIW; listed as Homo sapiens) [compound 95]” was tested, and the “Peptide exchange” value was “++++ (>75% = ++++)”.
